The text below walks through data of patent US10724034B2, “Genetic encoding of chemical post-translational modification for phage-displayed libraries” (THE GOVERNORS OF THE UNIVERSITY OF ALBERTA, priority 2014, dated 2020).

One assay addresses human Galectin-3 (Homo sapiens, UniProt P17931). In words: ELISA-like competition assay: inhibition of HRP-Lactose binding to surface-immobilized Galectin-3. The conditions noted are these: for Times more potent than MeGal at inhibiting HRP-Lac binding to Galectin-3: versus MeGal. The text has this: Using an ELISA-like competition assay (FIGS. 12, 13), the binding activity of these glycopeptides to carbohydrate recognition domain (CRD) of the human Galectin-3 and their ability to compete with binding of Lactose-conjugated horseradish peroxidase (HRP), were validated (FIG. 12). As references, we used known Gal3 ligands, such as lactose, Methyl-β-D-galactopiranoside (MeGal) and tetrasaccharide Lacto-N-Tetraose (LNT).
FIG. 12 illustrates an evaluation of activity of hits identified from genetically-encoded libraries of glycopeptides against […]. The assay measures that inhibitory constant (denoted as Effective concentrations of half-maximal response or EC50) of compounds in the inhibition of the interaction between soluble HRP-Lactose and surface-immobilized Galectin-3.
The competitive activity is quantified as decrease in color development by HRP-lac conjugate bound to Galectin-3 coated at 10 μg/ml concentration on polystyrene 96-well plates.

Assay [1] concerns the target T1, human Galectin-3 protein (human, UniProt P17931 2-250, limits assumed).
T1 construct: also called Gal3
In words: ELISA-like competition with HRP-Lactose on Galectin-3 coated wells; reference MeGal.

For assay [2], the target named is T1, human Galectin-3 protein. In words: ELISA-like competition with HRP-Lac on Galectin-3 coated plates; reference MeGal.
The target in assay [3] is T1, human Galectin-3 protein. In words: ELISA-like competition with HRP-Lac on Galectin-3 coated plates; reference lactose.
For assay [4], the target named is T2, Bovine carbonic anhydrase II (bovine, UniProt P00921 2-260).
T2 construct: Commercial protein; also called BCA
T2 sequence (P00921 2-260 limits assumed): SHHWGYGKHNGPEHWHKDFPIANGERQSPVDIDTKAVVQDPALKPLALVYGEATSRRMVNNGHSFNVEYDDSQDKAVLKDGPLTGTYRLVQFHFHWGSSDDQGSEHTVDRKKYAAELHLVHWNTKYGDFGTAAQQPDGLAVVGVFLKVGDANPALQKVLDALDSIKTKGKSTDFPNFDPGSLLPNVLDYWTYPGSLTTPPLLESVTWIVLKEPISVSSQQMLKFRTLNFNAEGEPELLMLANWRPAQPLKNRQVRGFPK
In words: panning/deep seq., Carbonic rep 1 [Carbonic Anhydrase].

In assay [5] the target is T2, Bovine carbonic anhydrase II. In words: panning/deep seq., Carbonic rep 2 [Carbonic Anhydrase].
The target is the same in assay [6]. In words: panning/deep seq., Carbonic rep 3 [Carbonic Anhydrase].
For assay [7] the target is unchanged. In words: panning/deep seq., Ratio col 1 (Carbonic/Blank by arithmetic) [Carbonic Anhydrase].
Assay [8] shares this target. In words: panning/deep seq., Ratio col 2 (Carbonic/Naive by arithmetic) [Carbonic Anhydrase].
Assay [9] has the same target. In words: panning/deep seq., Ratio col 3 (Carbonic/Bulk amplified by arithmetic) [Carbonic Anhydrase].
The target is the same in assay [10]. In words: ITC, replicate [row SA-TRPA, left panel].
Assay [11] has the same target. In words: ITC, replicate [row SA-TRPA, right panel]. The procedure: (§1) FIG. 9 provides additional replicates of raw ITC data of sulfonamide-peptide (SA-XXXX) binding to carbonic anhydrase. Raw data obtained for 30 injections of ligands (20-95 μM) into a solution of carbonic anhydrase (2.5-12 μM) at 4-min intervals and 30° C. is shown.
Assay [12] shares this target. In words: ITC, replicate [row SA-TRPA, middle panel]. The procedure:
as §1

Assay [13] deals with T1, human Galectin-3 protein. In words: competition ELISA: HRP-Lactose binding to plate-coated Galectin-3 [upper left panel]. The method in brief:
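Half-maximal inhibitory concentrations came from competition curves in an ELISA-like assay in which test molecules competed against a lactose-conjugated horseradish peroxidase probe for human Galectin-3. The carbohydrate recognition domain of the protein was coated on polystyrene 96-well plates at 10 μg/ml, and less colour development meant competition.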

The target in assay [14] is T2, Bovine carbonic anhydrase II. In words: isothermal titration calorimetry; reference SA-GGGG. The procedure: as §1
Assay [15] has the same target. In words: ITC, replicate [row SA-WIVP, right panel]. The method, then:
as §1

Assay [16] has the same target. In words: ITC, replicate [row SA-WIVP, middle panel]. The procedure: as §1
Assay [17] shares this target. In words: isothermal titration calorimetry, 30 C, single binding site model; selected peptide SA-WIVP (SEQ ID NO:26). The procedure:
as §1

For assay [18] the target is unchanged. In words: ITC, replicate [row SA-GGGG, right panel].
Assay [19] shares this target. In words: ITC, replicate [row SA-GGGG, middle panel]. The method, then: as §1
Assay [20] has the same target. In words: isothermal titration calorimetry, 30 C, single binding site model; control peptide SA-GGGG (SEQ ID NO:101). The procedure:
as §1

Ends that are not written are not given here. SA = 4-(aminooxymethyl)benzenesulfonamide joined by oxime ligation to the periodate-oxidised N-terminal serine; Glu = glucose (not glutamate); Rha = rhamnose

T1 sequence (P17931 2-250 limits assumed): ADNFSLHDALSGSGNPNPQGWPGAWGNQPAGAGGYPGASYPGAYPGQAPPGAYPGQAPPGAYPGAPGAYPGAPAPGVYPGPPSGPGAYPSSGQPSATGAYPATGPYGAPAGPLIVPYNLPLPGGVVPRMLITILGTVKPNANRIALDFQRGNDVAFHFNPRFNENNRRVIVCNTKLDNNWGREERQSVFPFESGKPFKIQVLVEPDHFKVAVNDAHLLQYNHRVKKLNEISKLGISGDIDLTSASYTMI
human Galectin-3, sequence (P17931 whole entry, the tested form may be a part): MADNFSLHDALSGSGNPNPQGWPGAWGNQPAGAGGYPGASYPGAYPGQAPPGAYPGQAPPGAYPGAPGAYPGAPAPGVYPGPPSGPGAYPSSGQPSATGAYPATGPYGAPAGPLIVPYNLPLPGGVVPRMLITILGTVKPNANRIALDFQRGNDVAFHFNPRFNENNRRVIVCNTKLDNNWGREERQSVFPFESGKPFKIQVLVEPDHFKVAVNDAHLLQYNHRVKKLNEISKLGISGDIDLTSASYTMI

Take “Gal-PAPT: Galactose modified glycopeptide, SEQ ID NO:105”: the EC50 with human Galectin-3 (FIG. 12, read-out: EC50, inhibition of interaction between soluble HRP-Lactose and surface-immobilized Galectin-3) was found to be 14 µM.
In the assay with human Galectin-3 protein [1], “Glu-SIYG (glucose-modified tetramer peptide)” yielded a fold higher potency than MeGal of 10 fold.
Regarding “Glu-SIYG: combination of glucose and tetramer peptide, SEQ ID NO:106 (also: residue 1 modified with glucose, attachment not given here)”, in the assay with human Galectin-3, the “Times more potent than MeGal at inhibiting HRP-Lac binding to Galectin-3” value came out at 10 times.
As for Rha-IWVR (rhamnose-peptide conjugate), the fold more potent inhibitor than MeGal in the assay with human Galectin-3 protein [2] came to 400 fold. This molecule also displayed a fold better than Lactose control in the assay with human Galectin-3 protein [3] of 10 fold.
Consider “Rha-IWVR: Rhamnose-peptide conjugate, SEQ ID NO:108 (also: residue 1 conjugated with rhamnose, attachment not given here)”, for which, in the assay with human Galectin-3 (comparison with Lactose, MeGal or LNT), the “Potency in HRP-Lac competition compared in words with a control” value was “in the same order of the LNT”. In addition, the “Times better than Lactose at inhibiting HRP-Lac binding to Galectin-3” value with human Galectin-3 (versus Lactose) turned out to be 10 times. In the assay with human Galectin-3, the “Times more potent than MeGal at inhibiting HRP-Lac binding to Galectin-3” value was 400 times.
Regarding SA-WPPY (peptide), the copy number is 17 in [4], 16 in assay [5] and 20 in [6]. Besides, the Ratio in [7] turned out to be 59; in [8] it was 4; in assay [9], 5.
With SA-WQQQ (peptide), the copy number in [4] was 403; in [5], 422; in [6], 596. Also, the Ratio was 1580 in assay [7], 178 in assay [8] and 102 in assay [9].
SA-WSVM (peptide): the copy number in assay [4] was determined as 3; in [5], 2; in [6], 4. Besides, the Ratio in [7], in assay [8] and in assay [9] was 10 throughout.
As to SA-WTSG (peptide), the copy number in assay [4] worked out at 63; in assay [5], 30; in assay [6], 46. For the same molecule, the Ratio was 154 in assay [7], 9 in [8] and 11 in [9].
On to SA-WTWL (peptide), for which the copy number in assay [4] worked out at 43; in assay [5], 57; in [6], 26. For the same molecule, the results for the Ratio in assay [7], in assay [8] and in [9] were 140, 140 and 21, respectively.
Consider SA-WTYW (peptide), for which the copy number in assay [4] amounted to 18; in [5] it was 33; in assay [6], 15. The Ratio in [7] is 73; in assay [8] it was 6; in [9] it was 8.
Take SA-WYKL (peptide): the copy number in assay [4] is 862; in assay [5], 1160; in assay [6], 285. In addition, the Ratio in assay [7] worked out at 2560; in [8] it was 288; in assay [9], 121.
For SA-YGTH (peptide), the copy number was 50 in assay [4], 118 in assay [5] and 63 in [6]. The results for the Ratio in [7], in [8] and in assay [9] were 257, 26 and 7, respectively.
With SA-YMSN (peptide), the figures for the copy number in assay [4], in assay [5] and in assay [6] were 51, 25 and 53, respectively. The Ratio in [7] turned out to be 143; in [8], 143; in assay [9], 10.
On to SA-YQYS (peptide), for which the copy number was 154 in assay [4], 194 in assay [5] and 51 in assay [6]. For the same molecule, the Ratio in [7] worked out at 443; in assay [8], 44; in assay [9], 44.
Consider {SA}-TRPA-NH2 (also: N-terminal SA cap oxime-linked, made from oxidised N-terminal Ser) [SA-TRPA], for which the Kd in assay [10] is 0.033 µM; in assay [11], 0.038 µM; in assay [12] it was 0.031 µM.
With Rha-PQLP (not fully specified; printed as Rha-PQLP) [Rha-PQLP], the “IC50 (read off the curve)” value in the assay with human Galectin-3 protein [13] was ~1000 µM.

B1: SA-WIVP (sulfonamide-modified peptide) (peptide)
peptide: {SA}-WIVP-NH2
modifications: also: N-terminal SA cap oxime-linked, made from oxidised N-terminal Ser
notes: Synthetic conjugate made from the peptide S-WIVP; The N-terminal Ser is turned into the oxime-linked sulfonamide; also called sulfonamide-peptide; SA-XXXX
In the case of B1, the “fold stronger affinity than control peptide SA-GGGG” value in assay [14] came to 30 fold. Further, the Kd came to 0.006 µM in assay [15], 0.009 µM in assay [16] and 0.005 µM in assay [17].

B2: SA-GGGG (control sulfonamide-modified peptide) (peptide)
peptide: {SA}-GGGG-NH2
modifications: also: N-terminal SA cap oxime-linked, made from oxidised N-terminal Ser
notes: Control peptide in ITC; also called control peptide SA-GGGG
In the case of B2, the values for the Kd in assay [18], in assay [19] and in assay [20] were 0.14 µM, 0.13 µM and 0.15 µM, respectively.
